# Assay results taken from publication PMC6042779.
# Molecular target: SRC (UniProt P12931)
# Assay: bead-immobilized peptide pulldown of SRC-GST
# Conditions: reference: nonphosphorylated FAK peptide; sites Y397
substance,measurement,value
"FAK FERM-kinase linker region, 358-409 (from UniProt P34152) pY397 FAK peptide",binding against the reference,gained
